Laboratory results reported in the nanobody polyreactivity screen of Harvey et al. (2022).

Test: yeast display, Sf9 membrane polyspecificity reagent, FACS + sequencing; frameworks hold sequencing errors
In short: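 Synthetic nanobody libraries on Saccharomyces cerevisiae BJ5465 were galactose-induced for 36–48 hours, stained 1 hour at 4 °C with 10% biotinylated, detergent-solubilized Sf9 membrane reagent and enriched on streptavidin microbeads. FACS then separated cells into low and high (top ~1%) gates by anti-HA (expression) and streptavidin (reagent binding) fluorescence. Genes were colony-PCR amplified, MiSeq 2 × 250 sequenced and CDR-length filtered. A clone's polyreactivity label is that of its gate of origin.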

Row | Sequence | polyreactivity (PSR sort gate)
1 | QVQLVESGGGLVQAGGSLRLSCAASGFIFRWYAMGWYRQEPGKERELVAAITWRGGSTYADSVKGRFTISRDNAKNTVYLQMNSLKPEVTAVYYCAAETHRRYDYWGQGTQVTVSS | high polyreactivity
2 | QVQLVESGGGLVQAGGSLRLSCAASGFIFRYNTMGWYRQAPGIVRELVAAISVSGARTYYADSVKGRFTISRDNAKKTVYLQMNSLKPEDTAVYYCNRRYPFYSRYNNDYWGLGTQVTVSS | high polyreactivity
3 | QVQLVESGGGLVQAGGSLRLSCAASGFIFRYNTMGWYRQEPGKERELVAAISKSGGRTYYADSVKGRFTISRDNAMNTVYLQMNSLNPEDTAVYYCAATLSYTGSKRYDYWGQGTQVTVSS | high polyreactivity
4 | QVQLVESGGGLVQAGGSLRLSCAASGFIFRYYAMGWSRQAPGKERELVASINSGGSTYYADSVKGRFTISRDNAKNTVYLQMNSLKPEDTAVYYCAVVLQYDWAYEKSYYWGQGTQVTVSS | low polyreactivity
5 | QVQLVESGGGLVQAGGSLRLSCAASGFIFRYYAMGWSRQAPGKERELVAVISSNGARTSYADSVKGRFTISRDNAKNTVYLQMNSLKPEDTAVYYCNARAWSRFPPVGHDYWGQGTQVTVSS | high polyreactivity
6 | QVQLVESGGGLVQAGGSLRLSCAASGFIFRYYAMGWYRQAPGKERELVAAISRGGSTNYADSVKGRFTISRDNAKNTVYLQMNSLKPEDTAVYYCAARTVRARSKFEYWGQGTQVTVSS | high polyreactivity
7 | QVQLVESGGGLVQAGGSLRLSCAASGFIFRYYAMGWYRQAPGKERELVAAISRSGGRTYYADSVKGRFTISRDNAKNTVYLQMNSLKPEDTAVYYCAARYPVRPDDGYWGQGTQVTVSS | high polyreactivity
8 | QVQLVESGGGLVQAGGSLRLSCAASGFIFRYYAMGWYRQAPGKERELVAAISSGGRTSYADSVKGRFTISRDNAKNTVYLQMNSLKPEDTAVYYCAADRWRGLFYYGNDYWGQGTQVTVSS | high polyreactivity
9 | QVQLVESGGGLVQAGGSLRLSCAASGFIFRYYAMGWYRQAPGKERELVAAISSRAGRTYADSVKGRFTISRDNAKYSVYLQMNSLKPEDTAVYYCAVRSKRKDVGYWGQGTQVTVSS | high polyreactivity
10 | QVQLVESGGGLVQAGGSLRLSCAASGFIFRYYAMGWYRQAPGKERELVAAITSRGSSTYYADSVKGRFTISRDNAKNTVYLQMNSLKPDDTAVYYCAARLRGDYVRYDYWGQGTQVTVSS | high polyreactivity
11 | QVQLVESGGGLVQAGGSLRLSCAASGFIFRYYAMGWYRQAPGKERELVAAITSRGSSTYYADSVKGRFTISRDNAKNTVYLQMNSLKPEDTAVYYCAARSSATRSWIASRPGYRYNYWGQGTQVTVSS | high polyreactivity
12 | QVQLVESGGGLVQAGGSLRLSCAASGFIFRYYAMGWYRQEPGKERELVAAIDYSGGSTNYADSVKGRFTISRDNAKNTVYLQMNSLKPEDTAVYYCNAEYTWHRGYDYWGQGTQVTVSS | low polyreactivity
13 | QVQLVESGGGLVQAGGSLRLSCAASGFIFRYYAMGWYRQEPGKERELVAAISGSGGSKYYADSVKGRFTISRDNAKNNVYLQMNSLKQEDTAVYYFAKSYGSHRKIRTSFGYWGQGTQVTVSS | high polyreactivity
14 | QVQLVESGGGLVQAGGSLRLSCAASGFIFRYYAMGWYRQEPGKERELVAAITSRGSSTYYADSVKGRFTISRDNAKNTVYLQMNSLKPEDTAVYYCAARLRGDYVRYDYWGQGTQVTVSS | high polyreactivity
15 | QVQLVESGGGLVQAGGSLRLSCAASGFIFRYYARGWYRQAPGKERELVAAITSTGRTYYADSVKGRFTISRDNAKNTVYLQMNSLKPEDTAVYYCAKAWLRWGEDYWGQGTQVTVSS | low polyreactivity
16 | QVQLVESGGGLVQAGGSLRLSCAASGFIFSAYAMGWYRQAPGKERELVAAISYSGGTTYYADSVKGRFTISRDNAKNTVYLQMNSLKPEDTAVYYCAAGVGYWGQGTQVTVSS | high polyreactivity
17 | QVQLVESGGGLVQAGGSLRLSCAASGFIFSIYVMGWYRQAPGKERELVATISSTGSTNYADSVKGRFTISRDNAKNTVYLQMNSLKPEDTAVYYCAAYRRWWGQGTQVTVSS | high polyreactivity
18 | QVQLVESGGGLVQAGGSLRLSCAASGFIFSKYAMGWYRQAPGKERELVAAITRSGGRTYYADSVKGRFTISRDNAKNTVYLQMNSLKPEDSAVYYCAASWLYFGRDYWGQGTQVPVSS | high polyreactivity
19 | QVQLVESGGGLVQAGGSLRLSCAASGFIFSLYAMGWYRQAPGKERELVAVITWSDGRTYYADSVKGRFTISRDNAKNTVYLQMNSLKQEDTAVYYCAAADWITEYDYWGQGTQVTVSS | low polyreactivity
20 | QVQLVESGGGLVQAGGSLRLSCAASGFIFSNYAMGWYRQAPGKERELVAAISRSGGSTYYADSVKGRFTISRDNAKNTVYLQMNSLKPEDTAVYYCAARHAPILGDHGMKYWGQGTQVTVSS | high polyreactivity
21 | QVQLVESGGGLVQAGGSLRLSCAASGFIFSNYAMGWYRQEPGKERELVAAISWSGTLTNYADSVKGRFTISRDNAKNTVYLQMNSLKPEDTAVYYCAAYGDYLYDYWGQGTQVTVSS | low polyreactivity
22 | QVQLVESGGGLVQAGGSLRLSCAASGFIFSRNAMGWYRQAPGKEREFVAAISGRGGSTYYADSVKGRFTISRDNAKNTVYVQMNSLKPEDTAVYYCAVYSYGQTYSGYYLGQGTQVTVSS | high polyreactivity

Row | Sequence | polyreactivity (PSR sort gate)
23 | QVQLVESGGGLVQAGGSLRLSCAASGFIFSRNVMGWYRQAPGKDRELVAAISRSGGSTYYADSVKGRFTISRDNAKNTVYLQMNSLKPEDTAVYYCAAVRRVYSQNDYWGQGTQVTVSS | high polyreactivity
24 | QVQLVESGGGLVQAGGSLRLSCAASGFIFSRYAMGWSRQAPGKERELVAAISSRGGSTYYADSVKGRFTISRDNAKNTVYLQMNSLKPEDTAVFYWIAVGSAHYDYWGQGTQVTVSS | high polyreactivity
25 | QVQLVESGGGLVQAGGSLRLSCAASGFIFSRYAMGWYRQAPGKERELVAAISIGGSTYYADSVKGRFTISRDNAKNTVYLQMNSLKPEDTAVYDCAVDYRHSSSWNAGPWEMYYWGQGTQVTVSS | low polyreactivity
26 | QVQLVESGGGLVQAGGSLRLSCAASGFIFSSYAMGSYRQAPGKERELVAAISWSGGSTYYADSVKGRFTISRDNAKNTVYLQMKSLKPEDAAVYYCASVTRIFDYWGQGTQVTVSS | high polyreactivity
27 | QVQLVESGGGLVQAGGSLRLSCAASGFIFSSYAMGWYRPAPGKERELVAAISKSGGRTYYADSVKGRFTISRDNAKNTVYLQMNSLKPEDTSVYYCAKDVSDPFYDPFEYWGQGTQVTVSS | low polyreactivity
28 | QVQLVESGGGLVQAGGSLRLSCAASGFIFSSYAMGWYRQAPGKERELVAAINSSGGRTYYADSVKGRFTISRDNAKNTVYLQMNSLKPEDTAVYYCAAVVWSYYVGDDYWGQGTQVTVSS | high polyreactivity
29 | QVQLVESGGGLVQAGGSLRLSCAASGFIFSSYAMGWYRQAPGKESELVAAITSGGSTNYADSVKGRFTISRDNAKNTVYLQMNSLKPEDTADYYCATLPGGSWFFHWWSTGGDDEYWGQGTQVTVSS | low polyreactivity
30 | QVQLVESGGGLVQAGGSLRLSCAASGFIFSSYAMGWYRQATGKERELVATISWSGGSTYYADSVKGRFTISRDNAKNTVYLQMNSLKPEDTAVYYCAAGYQRYLQRPEFYYWGQGTQVTVSS | high polyreactivity
31 | QVQLVESGGGLVQAGGSLRLSCAASGFIFSTYTMGWYRQAPGKERELVAAISWRGGRTYYADSVKGRFTISRDNAKNTVYLQMNSLKPEDTAVYYCADYGTIRSSTAVEPLYNHWGQGTQVTVSS | high polyreactivity
32 | QVQLVESGGGLVQAGGSLRLSCAASGFIFSVYAMGGYRQAPGKDTELVAVISTSGGRTYYADSVKGRFTISRDNAKNTVYLQMNSLKPEDTAVYYCAADGFQYTLGNYYWGQGTQVTVSS | high polyreactivity
33 | QVQLVESGGGLVQAGGSLRLSCAASGFIFSWYAMGWYRQAPGKERELVAAISHDGGSTYYADSVKGRFTISRDNAKNTVYLQMNSLKAEDTAVYYCAAPLRALSQRMGYWGQGTQVTVSS | high polyreactivity
34 | QVQLVESGGGLVQAGGSLRLSCAASGFIFSYYAMGRYRQAPGKEREMVAAITWSGSSTYYADSVKGRFTISRDNAKNTVYLQMYSLIPEDNAVYSCAASSGGFRHYFYTYNYWGQGTQVTVSS | high polyreactivity
35 | QVQLVESGGGLVQAGGSLRLSCAASGFIFSYYAMGWYRQAPGKERELVAAISRNGGRTYYADSVKGRFTISRDNAKNTVYLQMNSLKPEDTAVYYCAATTYRTSSYIRYGSPKHDDYWGQGTQVTVSS | high polyreactivity
36 | QVQLVESGGGLVQAGGSLRLSCAASGFIFSYYAMGWYRQAPGKERELVAAITDSGGSTYYADSVKGRFTISRDNAKNTVYLQMNSLKPEDTAVYYCAATYWWAYVWAYSHVKSTNDYWGQGTQVTVSS | low polyreactivity
37 | QVQLVESGGGLVQAGGSLRLSCAASGFIFSYYAMGWYRQAPGKERELVAAITSSGGSTYYADSVKGRFTISRDNAKNTVYLHLNSLKPEDTAVYYCNAYVRRTRDYDYWGQGTQVTVSS | high polyreactivity
38 | QVQLVESGGGLVQAGGSLRLSCAASGFIFSYYAMGWYRQAPGKERELVAAMSSSGSRTYYADSVKGRFTISRDNAKNTVYLQMNSLKPEDTAVYYCAARGWFRGEFDYWGQGTQVTVSS | high polyreactivity
39 | QVQLVESGGGLVQAGGSLRLSCAASGFIFSYYAMGWYRQAPGKERELVAVISWSGGSTYYADSVKGRFTISRDNAKNTVYLQMNSLKPEDTAVYYCNAGYTYNRVIWPYYYWGQGTQVTVSS | high polyreactivity
40 | QVQLVESGGGLVQAGGSLRLSCAASGFIFSYYTMGWYRQAPGKERELVAAISRNGGSTYYADSVKGRFTISRDNAKNTVYLQMNSLKPEDTAVYYCAKRVFNYQRYDYWGQGTQVTVSS | high polyreactivity
41 | QVQLVESGGGLVQAGGSLRLSCAASGFIFSYYTMGWYRQAPGKERELVAAISRRGGSTYYADSVKGRFTISRDNAKNTVYLQMNSLKPEDTAVYYCAAPRDWDAGDYWGQGTQVTVSS | high polyreactivity
42 | QVQLVESGGGLVQAGGSLRLSCAASGFIFTANAMGWYRQAPGKEMELVAAISRSGGRTYYADSVKGRFTISRDNAKNTVYLQMNSLKPEDTAVYYCAAPYRSYDWYDYWGQGTQVTVSS | high polyreactivity
43 | QVQLVESGGGLVQAGGSLRLSCAASGFIFTAYAMGWYRQAPGKERELVAGIRSGSATYYADSVKGRFTISRDNAKNTVYLQMNILKPEDTAVYYCNAEKYNFIYAYEYWGQGTQVTVSS | low polyreactivity
